Experimental data published in US20220324938A1 (published 2022).
Blank lines part the entries; values can stand above or below the binder they belong to.

Legend:
Assay in all cases: multimer staining
[1] = target: T1, MAGE-A3 peptide on HLA-B*18:01 (human)
T1 peptide: MEVDPIGHLY

[2] = target: T2, MAGE-A1 peptide on HLA-B*07:02 (human)
T2 peptide: RVRFFFPSL

[3] = target: T3, SSX2 peptide on HLA-A*02:01 (human)
T3 peptide: KASEKIFYV

[4] = target: T4, MART1 peptide on HLA-B*18:01 (human)
T4 peptide: EEAAGIGIL

binding result [1]: recognises
B1: B*18:01/MAGE-A3167-176 TCR (TCR, V domains shown)
Valpha: AQKVTQAQTEISVVEKEDVTLDCVYETRDTTYYLFWYKQPPSGELVFLIRRNSFDEQNEISGRYSWNFQKSTSSFNFTITASQVVDSAVYFCALEVRSSASKIIFGSGTRLSIRP
Vbeta: GAVVSQHPSWVICKSGTSVKIECRSLDFQATTMFWYRQFPKQSLMLMATSNEGSKATYEQGVEKDKFLINHASLTLSTLTVTSAHPEDSSFYICSANPRTTLYEQYFGPGTRLTVT

binding result [2]: recognises
B2: B*07:02/MAGE-A1289-297 TCR (TCR, V domains shown)
Valpha: AQKVTQAQTEISVVEKEDVTLDCVYETRDTTYYLFWYKQPPSGELVFLIRRNSFDEQNEISGRYSWNFQKSTSSFNFTITASQVVDSAVYFCALSESYSGAGSYQLTFGKGTKLSVIP
Vbeta: DTGVSQNPRHKITKRGQNVTFRCDPISEHNRLYWYRQTLGQGPEFLTYFQNEAQLEKSRLLSDRFSAERPKGSFSTLEIQRTEQGDSAMYLCASSLASGSNQPQHFGDGTRLSIL

binding result [3]: recognises
B3: A*02:01/SSX241-49 TCR (TCR, V domains shown)
Valpha: KQEVTQIPAALSVPEGENLVLNCSFTDSAIYNLQWFRQDPGKGLTSLLLIQSSQREQTSGRLNASLDKSSGRSTLYIAASQPGDSATYLCAVEPMEYGNKLVFGAGTILRVKS
Vbeta: DGGITQSPKYLFRKEGQNVTLSCEQNLNHDAMYWYRQDPGQGLRLIYYSQIVNDFQKGDIAEGYSVSREKKESFPLTVTSAQKNPTAFYLCASSALFSGANVLTFGAGSRLTVL

binding result [4]: recognises
B4: B*18:01/MART125-33 TCR (TCR, V domains shown)
Valpha: GQNIDQPTEMTATEGAIVQINCTYQTSGFNGLFWYQQHAGEAPTFLSYNVLDGLEEKGRFSSFLSRSKGYSYLLLKELQMKDSASYLCAVYGGATNKLIFGTGTLLAVQP
Vbeta: NAGVMQNPRHLVRRRGQEARLRCSPMKGHSHVYWYRQLPEEGLKFMVYLQKENIIDESGMPKERFSAEFPKEGPSILRIQQVVRGDSAAYFCASSPHAGGVDEKLFFGSGTQLSVL
